The source of these data is patent publication US20160346375A1 (MCMASTER UNIVERSITY, published 2016).

The target in the assay is T1, Cpn0803 (Chlamydia pneumoniae, UniProt Q9Z7A3 1-184).
T1 construct: Prey in an E. coli lysate
T1 sequence: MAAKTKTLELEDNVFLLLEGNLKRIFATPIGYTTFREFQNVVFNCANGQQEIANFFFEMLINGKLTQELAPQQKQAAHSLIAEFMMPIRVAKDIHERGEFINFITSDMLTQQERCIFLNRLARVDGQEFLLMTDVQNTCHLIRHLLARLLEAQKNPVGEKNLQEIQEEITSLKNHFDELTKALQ
Put plainly: GST pull-down from E. coli lysate, high salt wash.

B1: GST-CopB1-255 (other)
chain: MSISSSSGPDNQKNIMSQVLTSTPQGVPQQDKLSGNETKQIQQTRQGKNTEMESDATIAGASGKDKTSSTTKTETAPQQGVAAGKESSESQKAGADTGVSGAAATTASNTATKIAMQTSIEEASKSMESTLESLQSLSAAQMKEVEAVVVAALSGKSSGSAKLETPELPKPGVTPRSEVIEIGLALAKAIQTLGEATKSALSNYASTQAQADQTNKLGLEKQAIKIDKEREEYQEMKAAEQKSKDLEGTMDTVNT
notes: Bait on glutathione-agarose beads; also called recombinant GST-CopB1-255; GST-CopB fragment; not shown: glutathione-S-transferase (GST) fusion tag
B1: the binding result was “no binding”.
